Ends that are not written are not given here.
What was measured:
[1] = system: insulin-stimulated glycogen synthesis in soleus muscle; settings: cited from earlier work
[2] = target: amylin receptors (membrane-bound amylin receptors)
[3] = target: amylin receptors (membrane-bound amylin receptors); assay: receptor binding assay: competition with 125I Bolton Hunter rat amylin for membrane-bound amylin receptors
[4] = system: food intake in mice; assay: food intake in food-deprived mice after intraperitoneal injection; type: in vivo
Method: Male NIH/Swiss Webster (Hsd:NIHS) mice, 8-10 weeks of age, were obtained from Harlan Sprague Dawley, Madison, Wis. Animals were exposed to 12:12 hour light-dark cycle, with lights off at 18:00, and with room temperature between 22° and 25° C. Water and food (Teklan 7002, Harlan Teklad, Madison, Wis.) were available ad libitum except as indicated below. Animals were adapted to the vivarium environment for at least one week before experiments were carried out.
Rat amylin (AC128) was synthesized by Fmoc solid phase synthesis. […] Peptides were dissolved in sterile water to obtain stock solutions of 1 mg/ml. Further dilutions were made with sterile saline just prior to intraperitoneal injections.
Animals were individually housed and deprived of food for 18-20 hours before experiments. Animals were allowed ad libitum access to water before and during the experiments. Immediately after intraperitoneal injection of rat amylin or CCK-8 or saline, all animals received a pre-weighed pellet of food. Food intake for each animal was measured by weighing the food pellet at 30 minutes following injection and providing food.

[5] = system: food intake in rats; settings: IP, 0.5 μg/kg; cited from earlier work
[6] = solubility and stability characteristics compared to human amylin; type: physicochemical

Row | Compound | Soleus Muscle (EC50, nM) [2] [nM] | IC50 [3] [nM] | also measured
1 | Salmon calcitonin: calcitonin from fish (salmon), ultimobranchial calcitonin, amylin agonist | – | – | EC50 [1]: 0.4 nM
2 | Chicken calcitonin: ultimobranchial calcitonin closely related to fish calcitonins (CASLSTCVLGKLSQELHKLQTYPRTDVGAGTP; ends and bridges not checked; cysteine pairing not given here) | – | – | EC50 [1]: 0.7 nM
3 | CSCC[C@H](NC(=O)[C@H](Cc1ccc(OS(=O)(=O)O)cc1)NC(=O)[C@@H](N)CC(=O)O)C(=O)NCC(=O)N[C@@H](Cc1c[nH]c2ccccc12)C(=O)N[C@@H](CCSC)C(=O)N[C@@H](CC(=O)O)C(=O)N[C@@H](Cc1ccccc1)C(N)=O [CCK-8, Asp-Tyr(SO3 H)-Met-Gly-Trp-Met-Asp-Phe-NH2] | – | – | effect on food intake ([4]; IP injection of 1.0 μg/kg, peptide alone): no measurable effect; suppressed food intake ([4]; mice, intraperitoneal, 1.0 μg/kg of each peptide, at 30 minutes): 10.6±16.9%
4 | Chicken calcitonin (from UniProt P07660) (ligand) | 0.7 | 0.03 | –
5 | Eel calcitonin: calcitonin from fish (eel), ultimobranchial calcitonin (CSNLSTCVLGKLSQELHKLQTYPRTDVGAGTP; ends and bridges not checked; cysteine pairing not given here) | – | – | EC50 [1]: 0.4 nM
6 | amylin: amylin of unstated species in a literature report (KCNTATCATQRLANFLVHSSNNFGAILSSTNVGSNTY; Islet amyloid polypeptide; UniProt P10997 34-70, looked up) | – | – | effect on food intake [5]: significantly decreased food intake
7 | CC[C@H](C)[C@H](NC(=O)[C@@H]1CCCN1C(=O)CNC(=O)[C@H](Cc1ccccc1)NC(=O)[C@H](CC(N)=O)NC(=O)[C@H](CC(N)=O)NC(=O)[C@H](CO)NC(=O)[C@H](CO)NC(=O)[C@H](Cc1c[nH]cn1)NC(=O)[C@@H](NC(=O)[C@H](CC(C)C)NC(=O)[C@H](Cc1ccccc1)NC(=O)[C@H](CC(N)=O)NC(=O)[C@H](C)NC(=O)[C@H](CC(C)C)NC(=O)[C@H](CCCNC(=N)N)NC(=O)[C@H](CCC(N)=O)NC(=O)[C@@H](NC(=O)[C@H](C)NC(=O)[C@@H]1CSSC[C@H](NC(=O)[C@@H](N)CCCCN)C(=O)N[C@@H](CC(N)=O)C(=O)N[C@@H]([C@@H](C)O)C(=O)N[C@@H](C)C(=O)N[C@@H]([C@@H](C)O)C(=O)N1)[C@@H](C)O)C(C)C)C(=O)N[C@@H](CC(C)C)C(=O)N1CCC[C@H]1C(=O)N1CCC[C@H]1C(=O)N[C@H](C(=O)N[C@@H](CC(N)=O)C(=O)N[C@H](C(=O)NCC(=O)N[C@@H](CO)C(=O)N[C@@H](CC(N)=O)C(=O)N[C@H](C(=O)N[C@@H](Cc1ccc(O)cc1)C(N)=O)[C@@H](C)O)C(C)C)[C@@H](C)O [^25,28,29 Pro-h-amylin] | – | – | solubility characteristics [6]: more desirable; stability characteristics [6]: more desirable

Further lines, with some results ahead:

Row | Soleus Muscle (EC50, nM) [2] [nM] | IC50 [3] [nM] | Compound | also measured
8 | 1.6 | 0.05 | Human amylin (from UniProt P10997) (ligand) | –
9 | 0.4 | 0.07 | Salmon calcitonin (from UniProt P01263) (ligand) | –
10 | 0.3 | 0.05 | 1.7-Asn-eel Calcitonin (from UniProt P01262) (peptide) | –
11 | 0.4 | 0.09 | Eel calcitonin (from UniProt P01262) (ligand) | –

From patent US5739106A, “Appetite regulating compositions” (priority 1995, dated 1998)
